Data: publication PMC3846889, “Interacting Proteins on Human Spermatozoa: Adaptive Evolution of the Binding of Semenogelin I to EPPIN” (PLoS ONE, 2013)
Substitutions are numbered along the chain they refer to. In names and notes the source's numbering stands.

B1: human recombinant SEMG1^214-42 (wild-type, residues G26-R281) (domain or fragment, UniProt P04279-1 26-281, looked up)
chain: GGSKGRLPSEFSQFPHGQKGQHYSGQKGKQQTESKGSFSIQYTYHVDANDHDQSRKSQQYDLNALHKTTKSQRHLGGSQQLLHNKQEGRDHDKSKGHFHRVVIHHKGGKAHRGTQNPSQDQGNSPSGKGISSQYSNTEERLWVHGLSKEQTSVSGAQKGRKQGGSQSSYVLQTEELVANKQQRETKNSHQNKGHYQNVVEVREEHSSKVQTSLCPAHQDKLQHGSKDIFSTQDELLVYNKNQHQTKNLNQDQQHGR
notes: semenogelin I (SEMG1), human, residues G26-R281, cloned into pET100/D-TOPO; also called his-SEMG1; semenogelin I fragment G26-R281; source: E. coli BL21 Star (DE3), purified under denaturing conditions (Ni-NTA); not shown: His6, N-terminal, kept
B2: C239H-SEMG1^214-42 (domain or fragment, human, UniProt P04279-1 26-281, looked up)
chain: B1 chain with C214H
notes: semenogelin I (SEMG1), human, residues G26-R281 with C239H (His239 is the Gorilla residue); Point mutant of m2; source: E. coli BL21 Star (DE3), purified under denaturing conditions (Ni-NTA); not shown: His6, N-terminal, kept
B3: C239R-SEMG1^214-42 (domain or fragment, human, UniProt P04279-1 26-281, looked up)
chain: B1 chain with C214R
notes: semenogelin I (SEMG1), human, residues G26-R281 with C239R (Arg239 is the residue of Macaca mulatta and Papio anubis); Point mutant of m2; source: E. coli BL21 Star (DE3), purified under denaturing conditions (Ni-NTA); not shown: His6, N-terminal, kept
B4: recombinant SEMG1^74-42 (residues R165-R281) (domain or fragment, human, UniProt P04279-1 165-281, looked up)
chain: RLWVHGLSKEQTSVSGAQKGRKQGGSQSSYVLQTEELVANKQQRETKNSHQNKGHYQNVVEVREEHSSKVQTSLCPAHQDKLQHGSKDIFSTQDELLVYNKNQHQTKNLNQDQQHGR
notes: semenogelin I (SEMG1), human, residues R165-R281, in pET100/D-TOPO; source: E. coli BL21 Star (DE3), purified under denaturing conditions (Ni-NTA); not shown: His6, N-terminal, kept
B5: C239S-SEMG1^214-42 (domain or fragment, human, UniProt P04279-1 26-281, looked up)
chain: B1 chain with C214S
notes: semenogelin I (SEMG1), human, residues G26-R281 with C239S; Point mutant of m2; source: E. coli BL21 Star (DE3), purified under denaturing conditions (Ni-NTA); not shown: His6, N-terminal, kept
B6: C239G-SEMG1^214-42 (domain or fragment, human, UniProt P04279-1 26-281, looked up)
chain: B1 chain with C214G
notes: semenogelin I (SEMG1), human, residues G26-R281 with C239G; Point mutant of m2; source: E. coli BL21 Star (DE3), purified under denaturing conditions (Ni-NTA); not shown: His6, N-terminal, kept
B7: C239D-SEMG1^214-42 (domain or fragment, human, UniProt P04279-1 26-281, looked up)
chain: B1 chain with C214D
notes: semenogelin I (SEMG1), human, residues G26-R281 with C239D; Point mutant of m2; source: E. coli BL21 Star (DE3), purified under denaturing conditions (Ni-NTA); not shown: His6, N-terminal, kept
B8: recombinant SEMG1^74-8 (residues R165-Q247) (domain or fragment, human, UniProt P04279-1 165-247, looked up)
chain: RLWVHGLSKEQTSVSGAQKGRKQGGSQSSYVLQTEELVANKQQRETKNSHQNKGHYQNVVEVREEHSSKVQTSLCPAHQDKLQ
notes: semenogelin I (SEMG1), human, residues R165-Q247, in pET100/D-TOPO; also called fragment 74-8; source: E. coli BL21 Star (DE3), purified under denaturing conditions (Ni-NTA); not shown: His6, N-terminal, kept
B9: human recombinant EPPIN (residues P22-P133) (domain or fragment)
chain: not shown
notes: EPPIN, human, residues P22-P133, cloned into pET100/D-TOPO; also called tag-free EPPIN; source: E. coli Rosetta-Gami 2 (DE3), purified under denaturing conditions (Ni-NTA); 6X His-tag removed with enterokinase; not shown: His6, N-terminal, cleaved

The binders below were run against B9 (assay: cell-based or functional assay). Conditions: not given.
In the case of QRETKNSHQNKGHYQNVVEVREEHSSKVQTSLCPAHQDKLQ (domain or fragment, human, UniProt P04279-1 207-247, looked up) [recombinant SEMG1^32-8 (residues Q207-Q247)], the “inhibition of human sperm motility (normalized iRMI by CASA), concentration-response, EC50” value is reported as 1750 nM.
B1 was tested, and the “inhibition of human sperm motility (normalized iRMI by CASA), concentration-response, EC50” value was 1690 nM.
B2 was tested, and the “inhibition of human sperm motility (normalized iRMI by CASA), concentration-response, EC50” value was 1080 nM.
For B3, the “inhibition of human sperm motility (normalized iRMI by CASA), concentration-response, EC50” value was 2210 nM.
For B4, the “inhibition of human sperm motility (normalized iRMI by CASA), concentration-response, EC50” value was 3560 nM.

The binders below were run against B9 (assay: AlphaScreen or HTRF; direct binding, concentration-response: EPPIN (29 nM) on anti-EPPIN Q20E antibody (2 nM) and Protein A acceptor beads; His-tagged SEMG1 construct (0.04-7.5 µM) on Ni-NTA-chelate donor beads; 10 µg/ml beads, 30 µl; EC50 from the specific signal after 16 h). Conditions: both partners purified.
With B1 the EC50 was 23.1 nM.
In the case of B5, the EC50 is reported as 564 nM.
B2 was tested, and the EC50 was 167 nM.
B6 gave an EC50 of 83.3 nM.
For B3, the EC50 was 461 nM.
Binder B7 has an EC50 of 96.1 nM.

The binders below were run against B9 (assay: AlphaScreen or HTRF; competition: EPPIN (10 nM) and bt-SEMG1^214-42 (1 nM) with increasing SEMG1 competitor (10 pM - 8 µM), 30 µl, 15 µg/ml beads; as in ref. 23). Conditions: both partners purified.
In the case of B8, the IC50 is reported as 385 nM.
In the case of B1, the IC50 is reported as 8.1 nM.
B4 was tested, and the IC50 was 124 nM.

The binders below were run against T1, biotinylated SEMG1^214-42 (human, UniProt P04279-1 26-281, biotin (biotinylated as in ref. 23; sites not stated)) in the same assay as above. Conditions: both partners purified.
T1 construct: semenogelin I (SEMG1), human, residues G26-R281; The same construct as m2, biotinylated; also called bt-SEMG1; source: E. coli BL21 Star (DE3), purified under denaturing conditions (Ni-NTA), then biotinylated
T1 sequence (looked up): B1 chain
B9: binds.
